Where two headings read alike, the source gives them in different places.
Key:
[1] = target: T1, monomeric human c-fms (residues 1-512)-pHis (human, UniProt P07333 20-512); assay: Biacore, low resolution; hybridoma mAb captured on anti-human IgG, monomeric c-fms-pHis analyte at 125 nM
T1 construct: Construct stated as residues 1-512; signal stated as amino acids 1-19 and left out; also called human c-fms (1-512).pHIS; monomeric c-fms
Protocol: Anti-human IgG was immobilized on all four flow cells of a sensor chip using amine coupling. Crude hybridoma samples were diluted into halves and captured on the anti-IgG surface. […] Sequence lineage analyses were also performed on the 29 hybridomas (see, FIG. 2).

[2] = target: T2, human c-fms, full length, on cells (human, UniProt P07333 20-972); assay: cell-based or functional assay
[3] = target: T3, cynomolgus monkey c-fms on primary bone marrow cells (cynomolgus monkey); assay: cell-based or functional assay
[4] = target: T2, human c-fms, full length, on cells; assay: cell-based or functional assay; remark: listed apart in the source
[5] = target: T3, cynomolgus monkey c-fms on primary bone …; assay: cell-based or functional assay; remark: listed apart in the source

T1 sequence (P07333 20-512): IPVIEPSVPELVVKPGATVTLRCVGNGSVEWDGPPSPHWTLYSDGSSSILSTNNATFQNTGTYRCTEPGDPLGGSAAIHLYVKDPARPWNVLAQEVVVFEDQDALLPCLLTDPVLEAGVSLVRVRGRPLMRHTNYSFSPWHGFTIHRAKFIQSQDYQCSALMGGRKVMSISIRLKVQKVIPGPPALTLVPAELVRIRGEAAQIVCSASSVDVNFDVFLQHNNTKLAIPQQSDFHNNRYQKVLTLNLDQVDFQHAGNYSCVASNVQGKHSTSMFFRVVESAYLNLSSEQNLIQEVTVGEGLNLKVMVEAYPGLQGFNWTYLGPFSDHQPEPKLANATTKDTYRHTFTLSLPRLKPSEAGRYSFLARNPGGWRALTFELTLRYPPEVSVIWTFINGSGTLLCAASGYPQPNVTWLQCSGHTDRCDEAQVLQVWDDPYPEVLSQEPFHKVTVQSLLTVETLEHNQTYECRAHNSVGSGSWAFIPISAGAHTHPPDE
T2 sequence (P07333 20-972): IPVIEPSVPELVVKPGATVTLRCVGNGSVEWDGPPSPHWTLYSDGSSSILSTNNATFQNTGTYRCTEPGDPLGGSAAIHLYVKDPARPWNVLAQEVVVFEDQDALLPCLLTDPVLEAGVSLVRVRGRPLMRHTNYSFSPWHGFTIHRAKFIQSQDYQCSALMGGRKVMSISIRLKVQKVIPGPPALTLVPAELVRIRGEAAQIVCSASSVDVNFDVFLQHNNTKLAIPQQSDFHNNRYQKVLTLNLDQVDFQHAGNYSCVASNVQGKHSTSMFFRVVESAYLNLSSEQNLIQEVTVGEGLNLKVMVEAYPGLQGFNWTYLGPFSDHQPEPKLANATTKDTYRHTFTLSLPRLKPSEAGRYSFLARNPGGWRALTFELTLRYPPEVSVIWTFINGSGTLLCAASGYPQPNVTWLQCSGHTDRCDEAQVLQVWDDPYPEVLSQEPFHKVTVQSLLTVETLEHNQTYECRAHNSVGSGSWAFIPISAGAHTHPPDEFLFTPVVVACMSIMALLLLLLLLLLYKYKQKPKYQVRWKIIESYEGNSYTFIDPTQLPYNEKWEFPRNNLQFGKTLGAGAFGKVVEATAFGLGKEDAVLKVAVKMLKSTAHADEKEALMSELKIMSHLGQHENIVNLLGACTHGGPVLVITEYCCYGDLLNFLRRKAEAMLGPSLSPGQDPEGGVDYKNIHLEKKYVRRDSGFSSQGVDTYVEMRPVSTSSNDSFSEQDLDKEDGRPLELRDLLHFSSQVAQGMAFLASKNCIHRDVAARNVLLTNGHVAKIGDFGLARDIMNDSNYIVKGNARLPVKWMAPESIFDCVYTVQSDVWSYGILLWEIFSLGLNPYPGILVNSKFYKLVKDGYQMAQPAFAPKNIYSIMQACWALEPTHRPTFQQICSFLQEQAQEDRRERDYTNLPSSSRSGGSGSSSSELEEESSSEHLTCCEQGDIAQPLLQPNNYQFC

Binder | Kd [1] [nM] | koff [1] [s⁻¹] | kon [1] [M⁻¹ s⁻¹] | AML-5 bioassay IC50 [2] [nM] | Human CD14+ monocytes bioassay IC50 [2] [nM] | Cynomolgus bone marrow bioassay IC50 [3] [nM] | AML-5 bioassay IC50 [4] [ng/mL] | Human CD14+ monocytes bioassay IC50 [4] [ng/mL] | Cynomolgus bone marrow bioassay IC50 [5] [ng/mL]
anti-c-fms hybridoma antibody 1.66 (antibody, IgG1, V domains shown, Hybridoma IgG1 (cohort 1); also called 1.66.1; 1.66.2) VH: QVQLVESGGGVVQPGRSLRLSCAASGFTFSSYGMHWVRQAPGKGLEWVAVIWYDGSNEYYADSVKGRFTISRDNSKSTLYLQMNSLRAEDTAVYYCAHSSGNYYDMDVWGQGTTVTVSS VL: not shown | 23 | 0.0055 | 239000 | 0.027 | 0.067 | 0.047 | 4 | 10 | 7
anti-c-fms hybridoma antibody 2.475 (antibody, IgG2, V domains shown, Hybridoma IgG2 (cohort 2); also called 2.475.2) VH: QVQLVESGGGVVQPGRSLRLSCAASGFTFISYGMHWVRQAPGKGLEWVAVIWYDGSNKYYADSVKGRFTISRDNSKNTLYLQMNSLRAEDTAVYYCADSSGDYYGMDVWGQGTTVTVSS VL: DIQMIQSPSSLSASVGDRVTITCQASHDISNYLNWYQQKPGKAPKFLISDASNLETGVPSRFSGSGSGTDFTFTISSLQPEDIATYYCQQYDNLPLTFGGGTKVEIK | 4.7 | 0.0014 | 300000 | 0.04 | 0.067 | 0.167 | 6 | 10 | 25
anti-c-fms hybridoma antibody 1.134 (antibody, IgG1, V domains shown, Hybridoma IgG1 (cohort 1); also called 1.134.1) VH: QVQLVESGGGVVQPGRSLRLSCAASGFTFSSYGMHWVRQAPGKGLEWVAVIWYDGSNKYYADSVKGRFTISRDNSKNTLYLQMNSLRAEDTAVYYCASSSWSYYGMDVWGQGTTVTVSS VL: DIQMTQSPSSLSASVGDRVTITCQASQDINNYLNWYQQKPGKAPKLLIYDASNLEIGVPSRFSGSGSGTDFIFTISSLQPEDIATYYCQQYDNFPFTFGGGTKVEIK | 4.6 | 0.000703 | 153000 | 0.007 | < 0.007 | 0.04 | 1 | < 1 | 6
anti-c-fms hybridoma antibody 1.109 (antibody, V domains shown, Hybridoma IgG1 (cohort 1)) VH: not shown VL: DIQMTQSPSSLSASVGDRVTITCQASQNISNFLDWYQQKPGKAPNLLIYDASDLDPGVPSRFSGSGSGTDFTFTISSLQPEDIATYYCQQYVSLPLTFGGGTKVEIK | 0.1 | 4.36e-05 | 385000 | 0.005 | 0.02 | 0.073 | 0.7 | 3 | 11
anti-c-fms hybridoma antibody 2.534 (antibody, IgG2, V domains shown, Hybridoma IgG2 (cohort 2); also called 2.534.1; 2.534.2) VH: QVQLQESGPGLVKPSQTLSLTCTVSGGSISSGGYYWSWIRQHPGKGLEWIGYISYSGDTYYNPSLKSRLTISVDTSKHQFSLRLSSVTSADTAVYYCASLDLYGDYFDYWGQGTLVTVSS VL: EIVLTQSPDFQSVTPKEKVTITCRASQYIGSSLHWYQQTPDQSPKLLINYVSQSFSGVPSRFSGSGSGTDFTLTINSLEAEDAATYYCHQSSSLPFTFGPGTKVDIK | 43 | 0.015 | 345000 | 0.02 | 0.047 | – | 3 | 7 | –
anti-c-fms hybridoma antibody 1.143 (antibody, IgG1, V domains shown, Hybridoma IgG1 (cohort 1); also called 1.143.2; 1.143.1) VH: not shown VL: DIQMTQSPSSLSASVGDRVTITCQASQDINNYLNWYQQKPGKAPKLLIYDTSNLEPGVPSRFSGSGSGTDFTFTISSLQPEDIATYYCQQYDNLLTFGQGTRLEIK | 10 | 0.000559 | 55000 | 0.1 | – | 0.36 | 15 | – | 54
anti-c-fms hybridoma antibody 2.360 (antibody, IgG2, V domains shown, Hybridoma IgG2 (cohort 2)) VH: QVQLVQSGAEVKKPGASVKVSCKVSGYTLTELSMHWVRQAPGKGLEWMGGFDPEDGETIYAQKFQGRVTMTEDTSTDTVYMELSSLRSEDTAVYYCATGVMITFGGVIVGHSYYGMDVWGQGTTVTVSS VL: DIQMTQSPSSLSASVGDRVTITCRASQGINNYLAWYQQKPGKVPQLLIYVASTLQSGVPSRFSGSGSGTDFTLTISSLQPEDVATYYCQKYNSGPFTFGPGTKVDIK | 5.6 | 0.000338 | 60500 | 0.027 | 0.067 | 0.053 | 4 | 10 | 8
anti-c-fms hybridoma antibody 2.508 (antibody, IgG2, V domains shown, Hybridoma IgG2 (cohort 2); also called 2.508.1; 2.508.2) VH: QVQLVQSGAEVKKPGASVKVSCKVSGYTLTELSMHWVRQAPGKGLEWMGGFDPEDGETIYAQKFQGRVTMTEDTSTDTAYMELSSLRSEDTAVYYCATAGLEIRWFDPWGQGTLVTVSS VL: DIVMTQSPLSLPVTPGEPASISCRSSQSLLHSNGYNYLDWYLQKPGQSPQFLIYLGSIRASGVPDRFSGSGSGTDFALTISRVEAEDVGVYYCMQALQTPRTFGQGTKVEIK | 0.7 | 5.28e-05 | 74900 | 0.02 | 0.133 | – | 5 | 20 | –
anti-c-fms hybridoma antibody 1.131 (antibody, IgG1, V domains shown, Hybridoma IgG1 (cohort 1); also called 1.131.1) VH: not shown VL: DNVMTQTPLSLSVTPGQPASISCKSSQSLLHSDGKTYLYWYLQKPGQPPQLLIYEASNRFSGVPDRFSGSGSGTDFTLKISRVEAEDVGVYYCMQSIQLPLTFGGGTKVEIK | 41 | 0.00215 | 53100 | – | – | – | – | – | –
anti-c-fms hybridoma antibody 1.42 (antibody, IgG1, V domains shown, Hybridoma IgG1 (cohort 1); also called 1.42.3) VH: QVQLVQSGAEVKKPGASVKVSCKASGYTFTSYGISWVRQAPGQGLEWMGWISAYNGNTNYAQKLQGRVTMTTDTSTSTAYMELRSLRSDDTAVYYCARESWFGEVFFDYWGQGTLVTVSS VL: not shown | 1.6 | 0.00107 | 660000 | 0.02 | 0.067 | 0.2 | 3 | 10 | –
anti-c-fms hybridoma antibody 1.30 (antibody, IgG1, V domains shown, Hybridoma IgG1 (cohort 1); also called 1.30.2; 1.30.3) VH: QVQLVQSGAEVKKPGASVKVSCKASGYTFTSYGISWVRQAPGQGLEWMGWISAYNGNTNYAQKLQGRVTMTTDTSTSTAYMELRSLRSDDTAVYYCARESWFGEVFFDYWGQGTLVTVSS VL: not shown | 3.4 | 0.0014 | 406000 | 0.04 | 0.067 | 0.267 | 6 | 10 | 10
anti-c-fms hybridoma antibody 1.2 (antibody, V domains shown, Hybridoma IgG1 (cohort 1); also called 1.2.1) VH: QVQLVQSGAEVKKPGASVKVSCKASGYTFTSYGISWVRQAPGQGLEWMGWISAYNGNTNYAQKLQGRVTMTTDTSTSTAYMELRSLRSDDTAVYYCARESWFGEVFFDYWGQGTLVTVSS VL: not shown | 1.4 | 0.00113 | 817000 | 0.006 | < 0.007 | 0.04 | 0.9 | < 1 | 6
anti-c-fms hybridoma antibody 1.64 (antibody, IgG1, V domains shown, Hybridoma IgG1 (cohort 1); also called 1.64.1; 1.64.2) VH: EVQLVESGGGLVQPGGSLRLSCAASGFTFSSYDMHWVRQATGKGLEWVSGIGTAGDTYYPGSVKGRFNISRENAKNSLYLQMNSLRAGDTAVYYCAREGSWYGFDYWGQGTLVTVSS VL: EIVLTQSPGTLSLSPGERATLSCRASQSVSSGYLAYLAWYQQKPGQAPRLLIYGASSTATGIPDRFSGSGSGTDFTLTISRLEPEDFAVYYCQQYGSSPITFGQGTRLEIK | 2.5 | 0.00064 | 255000 | 0.004 | 0.013 | – | 0.6 | 2 | –
